The target in test [1] is T1, human TREM2 on the cell surface (human, UniProt Q9NZC2 19-230).
T1 sequence: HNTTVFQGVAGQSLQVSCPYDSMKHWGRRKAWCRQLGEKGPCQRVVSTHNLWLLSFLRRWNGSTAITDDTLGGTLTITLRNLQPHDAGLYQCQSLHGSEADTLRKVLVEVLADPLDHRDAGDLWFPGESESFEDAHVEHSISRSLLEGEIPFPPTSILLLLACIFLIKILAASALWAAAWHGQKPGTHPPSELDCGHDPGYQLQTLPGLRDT
In words: cell-based or functional assay.

Test [2] has as its target T2, His-tagged human TREM2 ECD (human, UniProt Q9NZC2 19-172).
T2 construct: Biacore and HDX say only recombinant human TREM2 (ECD); also called recombinant human TREM2; hTREM2
T2 sequence: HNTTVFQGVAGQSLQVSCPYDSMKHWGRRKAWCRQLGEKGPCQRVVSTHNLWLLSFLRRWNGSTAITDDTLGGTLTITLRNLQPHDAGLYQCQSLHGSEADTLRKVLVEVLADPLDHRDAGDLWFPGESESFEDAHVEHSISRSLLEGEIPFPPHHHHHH
Description: SPR (Biacore), antibody captured via anti-human Fab, recombinant TREM2 ECD injected, 1:1 fit. The method, then:
Surface plasmon resonance (Biacore™ 8K instrument) was used to measure anti-TREM2 antibody affinities for human and cynomolgus TREM2 ECD. Anti-TREM2 antibodies were captured using Human Fab Capture Kit (GE Healthcare Life Sciences, Catalog No. 28958325) on a Biacore Series S CM5 sensor chip (GE Healthcare Life Sciences, Catalog No. 29149604). Serial 3-fold dilutions of recombinant human or cynomolgus TREM2 were injected at a flow rate of 30 μL/min. Antibody binding was monitored for 300 seconds, followed by monitoring of antibody dissociation for 600+seconds in HBS-EP+ running buffer (GE Healthcare Life Sciences, Catalog No. BR100669). The binding response was corrected by subtracting the RU value from a blank flow cell. A 1:1 Languir model of simultaneous fitting of kₒₙ and koff was used for kinetics analysis.

Test [3] has as its target T1, human TREM2 on the cell surface. Description: cell binding, human macrophages, dose titration.
Test [4] concerns the target T3, mouse TREM2 full length stalk region peptide (aa 131-169) (mouse, UniProt Q99NH8 131-169, biotinylated (site not stated)).
T3 peptide (looked up): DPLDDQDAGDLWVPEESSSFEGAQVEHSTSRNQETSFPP
In words: ELISA on biotinylated peptide captured by streptavidin; A450 normalised to isotype control. How it is done: (§1) TREM2 antibodies were evaluated for binding to human and mouse TREM2 stalk region peptides. […] Antibody binding to TREM2 stalk peptides was detected using standard sandwich ELISA. Briefly, a 96-well half-area ELISA plate was coated with streptavidin overnight at 4° C. The following day, biotinylated TREM2 stalk peptides diluted in 1% BSA/PBS were added to the plate and incubated for 1 hour. Antibodies diluted in 1% BSA/PBS were then added and incubated for 1 hour. Antibodies bound to peptide were detected with anti-human kappa-HRP secondary antibody (Bethyl Laboratories, Inc.) diluted in 1% BSA/PBS. Plates were assayed by reaction with a detection reagent (One-step TMB Ultra, Thermo) and measurement of absorbance at 450 nm (A450) by standard spectrophotometry instrumentation (BioTek®). Data are shown as normalized values (fold over background where background=isotype control).
(In general: ELISA stands for enzyme-linked immunosorbent assay.)

Test [5] concerns the target T4, human TREM2 full length stalk region peptide (aa 129-172) (human, biotinylated (site not stated)).
T4 construct: also called Human TREM2 peptide (aa 129-172); full-length TREM2 stalk peptide
T4 peptide: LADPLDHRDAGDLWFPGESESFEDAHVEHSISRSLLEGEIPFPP
The description is as above. How it is done: as §1

Test [6] deals with T5, human TREM2 truncated stalk peptide (aa 149-163) (human, also: biotinylated (site not given here)).
T5 construct: also called Human TREM2 peptide (aa 149-163); truncated stalk peptide containing the ADAM10/17 cleavage site
T5 peptide: SFEDAHVEHSISRSL
Described as above. How it is done:
as §1

From patent US20220119522A1 (DENALI THERAPEUTICS, published 2022) come the findings set out here.

In general, Kd refers to the concentration at which binding is half-saturated. By EC50 is commonly meant the concentration at which the effect is half-maximal. Low readings indicate greater potency, high ones weaker potency.

No end group written: not given here.

B1: CL0020205 (antibody, V domains shown)
VH: EVQLQQSGPVLVKPGASVKMSCKASGYTFTDYYVHWVKQSHGKSLEWIGLINPYTGTTSYNQRFRVKATLTVDKSSSTAYMEVNSLTSEDSAVYYCARSRVYYGSSLFAFWGQGTLVTVSA
VL: DIVMTQSPSSLSVSAGEKVTMSCKSSQSLLNSGNQKNYLAWYQQKPGQPPKLLIYGASTRESGVPDRFTGSGSGTDFTLTISSVQAEDLAVYYCQNDHSYPYTFGGGTKLEIK
notes: also called Clone CL0020205
As to B1, in test [1], the “NFAT EC50 (nM), plate coated mAb” value is 67.7 nM; the “Survival EC50 (nM), plate coated mAb, human macrophages” value (from here on “Survival EC50 (nM), plate coated mAb”) was 5.7 nM; the “pSyk activation (human macrophages) EC50 (nM)” value (shortened to “pSyk activation”) was 14.3 nM. The Kd in test [2] amounted to 1.52 nM. In test [3], this molecule returned an EC50 of 2.1 nM. Further, the “fold over background (A450)” value in test [4] amounted to 1.1 fold. For the same molecule, the “fold over background (A450)” value in test [5] is 1.3 fold. In test [6], the “fold over background (A450)” value came out at 1.2 fold.

B2: CL0020120 (antibody, V domains shown)
VH: EVQLQQSGPELVRTGASVKISCRASSYSFTDNYIHWVKQTHGRSLEWIGYISGYTGATSYNQKFKGKATFTVDTSSSTAYMQFNSLTSEDSAVYYCARSTMIAPYGMDYWGQGTSVTVSS
VL: DIVMTQSHKFMSTSVGDRVNITCKASQDVVTAVAWYQQKPGQSPKLLIYWASTRHTGVPDRFTGSGSGTDFTLTISNVQSEDLADYFCQQYSRYPLTFGAGTKLELK
notes: also called Clone CL0020120
Regarding B2, in test [1], the “NFAT EC50 (nM), plate coated mAb” value amounted to 195 nM; the “Survival EC50 (nM), plate coated mAb” value was 17.8 nM; the “pSyk activation” value turned out to be 24.2 nM. Moreover, in test [2], the equilibrium dissociation constant (Kd) turned out to be 4.04 nM. This molecule had an EC50 in test [3] of 1.6 nM. The “fold over background (A450)” value in test [4] came to 1.2 fold. Further, the “fold over background (A450)” value in test [5] stood at 1.2 fold. In addition, the “fold over background (A450)” value in test [6] is 1.2 fold.

B3: CL0020127 (antibody, V domains shown)
VH: EVQLQQSGPVLVKPGASVKMSCKASGYKFTDYYMNWVKQSHGKSLEWIGTINPYSGGISYNQKFKGKATLTVDKSSSTAYMELNSLTSEASAVYYCTRRNWDGRYAMDYWGQGTSVTVSS
VL: DIVMTQSHKFMSTSVGDRVSITCKASQDVSTAVAWYQQKPGQSPKLLIYWASTRHTGVPDRFTGSGSGTDFTLTISNVQSEDLAEYFCQQYSSYPFTFGGGTKLEIK
notes: also called Clone CL0020127
Take B3: the “NFAT EC50 (nM), plate coated mAb” value in test [1] was found to be 20.5 nM. Moreover, in test [1], the “pSyk activation” value worked out at 11.9 nM. Besides, the dissociation constant (Kd) in test [2] came out at 3.37 nM. The molecule further gave an EC50 in test [3] of 11 nM. For the same molecule, the “fold over background (A450)” value in test [4] came out at 1.3 fold; in test [5], 1.4 fold; in test [6], 1.2 fold.

B4: CL0020206 (antibody, V domains shown)
VH: EVQLQQSGPVLVKPGASVKMSCKASGYTFTDYYMNWVKQSHGKSLEWIGIINPYSGGISYNQKFKGKAILTVDKSSSTAYMELNSLTSEASAVYYCTRRNWDGRYAMDYWGQGTSVTVSS
VL: DIVMTQSHKFMSTSVGDRVSITYKASQDVGSAVAWYQQKPGQSPKLLIYWTSTRHTGVPDRFTGSGSGTDFTLTISNVQSEDLADYFCQQYSSYPFTFGGGTKLEIK
notes: also called Clone CL0020206
Consider B4, for which the “NFAT EC50 (nM), plate coated mAb” value in test [1] was 69.9 nM. Moreover, the “pSyk activation” value in test [1] was 20.7 nM. The Kd in test [2] stood at 1.82 nM. Moreover, the midpoint of the response in test [3], the EC50, lay at 4.8 nM. The “fold over background (A450)” value in test [4] was 1.6 fold; in test [5], 1.8 fold; in test [6] it was 1.6 fold.

B5: CL0020096 (antibody, V domains shown)
VH: QIQLVQSGPELRKPGETVKISCKASGYTFTTYGMSWVKQAPGKGLKWMGWINTYSGLPRHSDDFKGRFAFSLETSASTAYLQINNLKNEDTATYFCAREVYYGSRKTAWFAYWGQGTLVTVSA
VL: DLVMSQSPSSLAVSVGERVTMSCKSSQSLLYSNDQKNYLAWYQQIPGQSPKLLIYWASTRESGVPDRFTGSGSGTDFTLTISSVKAEDLAVYFCQQYYSYPPTFGAGTKLELK
notes: also called Clone CL0020096
In the case of B5, in test [1], the “NFAT EC50 (nM), plate coated mAb” value is 16.2 nM; the “Survival EC50 (nM), plate coated mAb” value was 1.8 nM; the “pSyk activation” value was 30.9 nM. The Kd in test [2] stood at 5.54 nM. The molecule further displayed an EC50 in test [3] of 14 nM. In test [4], the “fold over background (A450)” value is 45 fold. Also, the “fold over background (A450)” value in test [5] stood at 45 fold.

B6: CL0020210 (antibody, V domains shown)
VH: QIQLVQSGPELRKPGETVKISCKASGYTFTTYGMSWVKQAPGKGLKWMGWINTYSGLPRHSDDFKGRFAFSLETSASTAYLQINNLKNEDTATYFCAREVYYGSRKTAWFAYWGQGTLVTVSA
VL: DLVMSQSPSSLAVSVGERITMTCKSSQSLLYSNDQKNYLAWYQQIPGQSPKLLLYWASTRESGVPDRFTGSGSGTDFTLTISSVKAEDLAVYFCQQYYNYPPTFGAGTKLELK
notes: also called Clone CL0020210; CL020210
As for B6, the “NFAT EC50 (nM), plate coated mAb” value in test [1] stood at 11.7 nM. Also, in test [1], the “pSyk activation” value was determined as 37.4 nM. Besides, the Kd in test [2] is 6.27 nM. Moreover, in test [3], the concentration giving a half-maximal response (EC50) worked out at 0.9 nM. Also, the “fold over background (A450)” value in test [4] turned out to be 25 fold; in test [5], 50 fold; in test [6], 1.5 fold.

B7: CL0020113 (antibody, V domains shown)
VH: QIQLVQSGPELKKPGESLKISCKASGYTFTDYAMQWVKQAPGKGLQYMGWINTQTGKPTYADDFKERFVFSLETSASTAYLKINNLKNDDMATYLCARSYGGEYNWIAYWGQGTLVTVSS
VL: DIVMTQTPSSQAVSAGEKVTMNCKSSQSLLYNENKKNYLAWYQQKPGQSPKLLIYWASTRESGVPDRFIGSGSGTDFTLTISSVQAEDLAVYYCQQSYNFPPTFGGGTKLELK
notes: also called Clone CL0020113
Turning to B7, in test [1], the “NFAT EC50 (nM), plate coated mAb” value turned out to be 185 nM; the “Survival EC50 (nM), plate coated mAb” value was 24.8 nM; the “pSyk activation” value stood at 24.8 nM. For the same molecule, in test [2], the Kd was found to be 7.81 nM. In test [3], this molecule gave an EC50 of 2.1 nM. In test [5], the “fold over background (A450)” value is 47 fold. The “fold over background (A450)” value in test [6] was determined as 1.4 fold.

B8: CL0020195 (antibody, V domains shown)
VH: EVQLVESGGGLVQPGRSMMLSCSASGFTFSNYHMAWVRQAPTTGLEWVASITTGSGNTYYRHSVKGRFTISRDNAKSTLYLQMDSLRSEDTASYYCARRWYGGYEGYYFDYWGQGVMVTVSS
VL: DIQMTQSPSLLSASVGDRVTLSCKAGQNVNNYLAWYQQKLGEAPKLLIYNANILQTGFPSRFSGTGSGTDFTLTISSLQPEDVATYFCQQYNSWTTFGGGTKLELK
notes: also called Clone CL0020195
For the molecule B8, the “NFAT EC50 (nM), plate coated mAb” value in test [1] was determined as 98.3 nM. Also, in test [1], the “pSyk activation” value turned out to be 12 nM. Further, in test [2], the dissociation constant (Kd) turned out to be 25.7 nM. Further, the EC50 in test [3] turned out to be 1.3 nM. In addition, the “fold over background (A450)” value in test [4] was 1.1 fold; in test [5], 1.3 fold; in test [6], 1.1 fold.
